{
  "source": "patent US20110038892A1",
  "about": "(priority 2009, published 2011)",
  "key": {"[1]": {"biological_target": "S1S25"}, "[2]": {"biological_target": "S3S25"}, "[3]": {"biological_target": "S1S23", "sequence (O00161 whole entry)": "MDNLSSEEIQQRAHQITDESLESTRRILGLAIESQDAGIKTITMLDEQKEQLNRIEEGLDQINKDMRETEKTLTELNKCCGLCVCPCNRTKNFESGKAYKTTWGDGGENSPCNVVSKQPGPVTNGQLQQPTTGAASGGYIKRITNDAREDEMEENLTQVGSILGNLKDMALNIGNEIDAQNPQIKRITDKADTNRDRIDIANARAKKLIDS"}, "[4]": {"biological_target": "S3S23", "sequence (O00161 whole entry)": "as above"}, "[5]": {"biological_target": "syntaxin1 (stx1) and SNAP25 (S25) (Rattus norvegicus, UniProt P32851+P60881)", "sequence (P60881 whole entry)": "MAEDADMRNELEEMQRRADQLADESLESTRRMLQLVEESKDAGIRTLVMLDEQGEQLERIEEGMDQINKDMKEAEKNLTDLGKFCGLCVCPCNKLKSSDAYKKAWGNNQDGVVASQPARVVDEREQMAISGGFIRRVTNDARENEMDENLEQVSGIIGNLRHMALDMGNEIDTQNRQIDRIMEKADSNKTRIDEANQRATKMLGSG", "sequence (P32851 whole entry)": "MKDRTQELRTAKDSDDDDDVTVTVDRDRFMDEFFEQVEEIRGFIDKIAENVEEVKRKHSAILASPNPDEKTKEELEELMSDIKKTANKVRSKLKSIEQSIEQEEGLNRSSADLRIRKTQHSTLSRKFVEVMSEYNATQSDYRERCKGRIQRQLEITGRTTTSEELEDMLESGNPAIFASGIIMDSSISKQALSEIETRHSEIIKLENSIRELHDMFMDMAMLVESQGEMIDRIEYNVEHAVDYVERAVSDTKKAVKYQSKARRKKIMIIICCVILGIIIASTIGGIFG"}, "[6]": {"system": "SNARE assemblies", "assay_type": "binding"}},
  "note": "No end group written: not given here. *: point of attachment. FITC = O=C1OC2(c3ccc(O)cc3Oc3cc(O)ccc32)c2ccc(NC(=S)*)cc21; Ahx = NCCCCCC(=O)O",
  "data": [
    {"molecule": "synaptobrevin (VAMP2)", "values": [
      {"measurement": "Tm", "setting": "[1]", "value": 71, "unit": "°C"},
      {"measurement": "Tm", "setting": "[2]", "value": 59, "unit": "°C"},
      {"measurement": "Tm", "setting": "[3]", "value": 65, "unit": "°C"},
      {"measurement": "Tm", "setting": "[4]", "value": 61, "unit": "°C"}
    ]},
    {"molecule": "{FITC-Ahx}-DIMRVNVDKVLERDQKLSELDDRADALQAGASQFETSAAKLA", "values": [
      {"measurement": "formation of SDS-resistant complex", "setting": "[5]", "value": "still forms an SDS-resistant complex"}
    ]},
    {"molecule": "{FITC-Ahx}-DKVLERDQKLSELDDRADALQAGASQFETSAAKLA [35 amino acid synaptobrevin SNARE motif]", "values": [
      {"measurement": "formation of SDS-resistant complex", "setting": "[5]", "value": "forms a complex but it ‘melts’ during gel-electrophoresis"}
    ]},
    {"molecule": "Ac-ERKAKYAKMEAEREVMRQGIRDKYGIKKGSGSGGIKVAV-NH2 [29 amino acid complexin 1 peptide]", "values": [
      {"measurement": "interaction with SNARE assemblies", "setting": "[6]", "value": "can interact with SNARE assemblies"}
    ]},
    {"molecule": "VAMP4 (protein) VAMP4: PPKFKRHLNDDDVTGSVKSERRNLLEDDSDEEEDFFLRGPSGPRFGPRNDKIKHVQNQVDEVIDVMQENITKVIERGERLDELQDKSESLSDNATAFSNRSKQLRRQMWWRGCK", "values": [
      {"measurement": "Tm", "setting": "[1]", "value": 60, "unit": "°C"},
      {"measurement": "Tm", "setting": "[2]", "value": 53, "unit": "°C"},
      {"measurement": "Tm", "setting": "[3]", "value": 60, "unit": "°C"},
      {"measurement": "Tm", "setting": "[4]", "value": 57, "unit": "°C"}
    ]},
    {"molecule": "VAMP8 (protein) VAMP8: EEASGSAGNDRVRNLQSEVEGVKNIMTQNVERILSRGENLDHLRNKTEDLEATSEHFKTTSQKVARKFWWKNVK", "values": [
      {"measurement": "Tm", "setting": "[1]", "value": 57, "unit": "°C"},
      {"measurement": "Tm", "setting": "[2]", "value": 48, "unit": "°C"},
      {"measurement": "Tm", "setting": "[3]", "value": 57, "unit": "°C"},
      {"measurement": "Tm", "setting": "[4]", "value": 56, "unit": "°C"}
    ]},
    {"molecule": "VAMP7 (protein) VAMP7: AILFAVVARGTTILAKHAWCGGNFLEVTEQILAKIPSENNKLTYSHGNYLFHYICQDRIVYLCITDDDFERSRAFSFLNEVKKRFQTTYGSRAQTALPYAMNSEFSSVLAAQLKHHSENKSLDKVMETQAQVDELKGIMVRNIDLVAQRGERLELLIDKTENLVDSSVTFKTTSRNLARAMCMKNIK", "values": [
      {"measurement": "Tm", "setting": "[1]", "value": 56, "unit": "°C"},
      {"measurement": "Tm", "setting": "[2]", "value": 45, "unit": "°C"},
      {"measurement": "Tm", "setting": "[3]", "value": 57, "unit": "°C"},
      {"measurement": "Tm", "setting": "[4]", "value": 50, "unit": "°C"}
    ]},
    {"molecule": "VAMP5 (protein) VAMP5: AGKELKQCQQQADEVTEIMLNNFDKVLERHGKLAELEQRSDQLLDMSSAFSKTTKTLAQQKRWENIRCR", "values": [
      {"measurement": "Tm", "setting": "[1]", "value": 53, "unit": "°C"},
      {"measurement": "Tm", "setting": "[2]", "value": 42, "unit": "°C"},
      {"measurement": "Tm", "setting": "[3]", "value": 55, "unit": "°C"},
      {"measurement": "Tm", "setting": "[4]", "value": 52, "unit": "°C"}
    ]}
  ]
}
